B1: bFGF: cytokine permanently expressed by STO feeder cells transduced with pMX expression vector (protein, UniProt P15655 10-154, looked up)
Fibroblast growth factor 2: PALPEDGGAAFPPGHFKDPKRLYCKNGGFFLRIHPDGRVDGVREKSDPHVKLQLQAEERGVVSIKGVCANRYLAMKEDGRLLASKCVTEECFFFERLESNNYNTYRSRKYSSWYVALKRTGQYKLGSKTGPGQKAILFLPMSAKS
B2: SCF: cytokine permanently expressed by STO feeder cells transduced with pMX expression vector (protein, UniProt P20826 26-190, looked up)
Soluble KIT ligand: KEICGNPVTDNVKDITKLVANLPNDYMITLNYVAGMDVLPSHCWLRDMVIQLSLSLTTLLDKFSNISEGLSNYSIIDKLGKIVDDLVLCMEENAPKNIKESPKRPETRSFTPEEFFSIFNRSIDAFKDFMVASDTSDCVLSSTLGPEKDSRVSVTKPFMLPPVAA

How the values were obtained:
[1] = system: Nanog-EGFP-IRES-Puro mouse MEFs; assay: iPS cell establishment with Nanog-GFP reporter, puromycin selection; type: cell-based; conditions: 4 factors; PD98059 final concentration 25 μM continuously added from the next day of transfection
Source text: Studies were made as to whether iPS cells could be established with a reporter other than Fbx15-βgeo. […] artificial chromosome (BAC) containing the Nanog gene in the center was isolated, and then the GFP gene and the puromycin resistance gene were knocked in by recombination in E. coli (FIG. 12A). Subsequently, the above modified BAC was introduced into ES cells to confirm that the cells became GFP-positive in an undifferentiated state specific manner (data not shown). Then, these ES cells were transplanted in mouse blastocysts to create transgenic mice via chimeric mice. In these mice, GFP-positive cells were specifically observed in inner cell masses of the blastocysts or gonads of embryos at 13.5 days after fertilization (FIG. 12B). The gonads were removed from the embryos at 13.5 days after fertilization (hybrid of DBA, 129, and C57BL/6 mice), and MEFs were isolated. The isolated MEFs were confirmed to be GFP-negative (FIG. 13) by flow cytometry. These MEFs were retrovirally transduced with the 4 factors and subjected to puromycin selection, and as a result, a plural number of resistant colonies were obtained. Only about 10 to 20% of the colonies were GFP-positive. When the GFP-positive colonies were passaged, they gave morphology (FIG. 14) and proliferation (FIG. 15) similar to those of ES cells. […]

[2] = system: MEFs derived from the Fbx15^βgeo/βgeo mouse; assay: Effect of cytokine-producing STO feeder cells on iPS cell establishment (G418 selection); type: cell-based; conditions: 3 factors other than c-Myc transduced
Source text: An effect of cytokine on iPS cell establishment was investigated. Expression vector (pMX retroviral vector) for basic fibroblast growth factor (bFGF) or stem cell factor (SCF) was transduced into feeder cells (STO cells) to establish cells permanently expressing the cytokines. […] As a result, the number of formed colonies increased 20 times or higher on the STO cells producing bFGF (FIG. 11) or SCF (data not shown), as compared with the culture on normal STO cells.

| Molecule | percentage of GFP-positive colonies [1] | colony formation with the 3 factors other than c-Myc on cytokine-producing STO cells [2] |
| --- | --- | --- |
| COc1cccc(-c2cc(=O)c3ccccc3o2)c1N [PD98059] | 45% |  |
| B1 |  | colony formation was observed |
| B2 |  | colony formation was observed |

Reference: patent publication US8048999B2, “Nuclear reprogramming factor” (Kyoto University, priority 2005, dated 2011)
